This is an account of results in doi:10.1101/697946.

The assay deals with LMP7-His, biotinylated (UniProt P28062). The assay is described as follows: BLI. In general terms: BLI is a label-free optical method that tracks binding on a fibre tip over time.

As to “Nef-GST (from UniProt P03406 1-206) (natural protein)”, the Kd is 735 nM and the wavelength shift worked out at 71.1 pm.

The term Kd denotes the concentration at which binding is half-saturated. A higher Kd goes with weaker binding.
